Assay: soluble on expression in E. coli; label from the status in PepcDB or PDB records
For “MEKKITQEGLARMIDKGMGTLLALPEIEKKKKSGDLPDNFKMEDGFGVYRVEVGGNEYLCVTNILCNKCERVNGKVKRCEAHKKKRKARKVRKDGDVADDTSDREKLGGLRHVNDEEEEEDKIEGAVTPDFVMTPGIGGAIILVPVDAKNNDRAGPPAKGLNHVKGILVRGAGNIPQFIPNDRLTKAHKLRFDNYIEGELNLVNGKEVFVPNNLGAAKMDEKNAQDVAKAAVADKVDQKVVDAIGKDMVVAVQVDVADNGMPVMKVLEGKPKDKETPVGIIVKANDQVQFVQIVGRELGGGKDAKMMPCTIPENGKVGDVIADVYVNKEGKAVSAKPGDAPAGAPVIGQVIVGQNDQLVFVAKGENKDDAVKKGAKMTPEMKEKLEQAQAKVQAAVTGQSADHIQEQVNRIGVPEAAATSAANGGNNAGGGGSSAEVRSVGFGAQQFGGSQFARPIPAGGGGGGSGGYGAGGGGSGGYGAGGAGGARNSASNGSYGSSANEVKSVGFGAQQYGGSVFAKPSGTGGGYVSAGSSARKSGESGAGGGGAGGGKAGGAKNSASYGSSANEVKSVGFGAQQYGGSVFIRK”, the “soluble on expression in E. coli” value was “not soluble”.
For “MAQNNENALPDITKSITLEAPIQKVWETVSTSEGIAKWFMPNDFQLKEGQEFHLQSPFGPSPCKVLAVQAPTELSFEWDTEGWVVTFQLEDLGEKTGFTLIHSGWKEPNEVIGKANEKSSVVRGKMDGGWTGIVNERLRKAVEE”, the “soluble on expression in E. coli” value was “not soluble”.
For “MLEFFDEDFDNMALVEGALELNKSVNPETNVHWAKQELERLYQEAEATLIHETDEEQRFDSFLRLFFHEWGFKGDDQEYFISDNSFIDKVLERKKGIPVSLGAILLYLGNRLGFPMKGVTFPTQFLIKVDWMHKTPDYINPFNGEYVGEKILQAWLIGQEGPLAQLKPEHFDEADNPTVIGRWLALIKSAMLREERYTLALRCTNLALTFVPDDPYEIRDRGFIFQQLECHQVAVSDFQYFIDQCPDDPASELLKSQVNAMSEKHVTLHLEHHHHHH”, the “soluble on expression in E. coli” value was “soluble”.
For “STFAYIANSESDNISVIDVTSNKVTATIPVGSNPMGAVISPDGTKVYVANAHSNDVSIIDTATNNVIATVPAGSSPQGVAVSPDGKQVYVTNMASSTLSVIDTTSNTVAGTVKTGKSPLGLALSPDGKKLYVTNNGDKTVSVINTVTKAVINTVSVGRSPKGIAVTPDGTKVYVANFDSMSISVIDTVTNSVIDTVKVEAAPSGIAVNPEGTKAYVTNVDKYFNTVSMIDTGTNKITARIPVGPDPAGIAVTPDGKKVYVALSFCNTVSVIDTATNTITATMAVGKNPYASGQFIGSIPVQPVYPSADFKSNITSGYIFLSEPVQFTDLSKDATEWKWDFGDGSSSKKQNPTHTYSETGIYTVRLTVSNSNGTDSQISTVNVVLKGSPTPS”, the “soluble on expression in E. coli” value was “soluble”.
With “MELRAVQEVLKEERLDGWLLYSFGGSNPLALEVLGLAHLHLTRRFAYLIPREGAPTLLCHAIEASLFPPLPGNRKTYHTWRGFLEGLAHLLGGMRRVALEYVPGGQIPYLSRVDGGTLDLLRGLGLELASSWPLLLLFQTWDEERLQSHRRAAAGLARAKDLALDFLRQNPEASEREVQSVLVRALEGEGLIFDHPPMVAFGKNAANPHHEPSEVRLEEGAVVLLDLWAKAPGGVYADLTWMAGKRPPEAAHRAFQAVARARDEAIAFVERAYREGRYPKGFEVDRLARKVLEEEGYGPYIRHRTGHNLGEEVHGSGPHLDDLETHDLRPLVPGLAFTVEPGVYLEAFGVRTEVDVYLHPTGPEVTTPLQEAITPL” the “soluble on expression in E. coli” value was “soluble”.
With “MSRQCTHYGRWPQHGFTSLKKLRPQSVTSRIQPGSDVIVCAEMDEHWGYVGAKSRQRWLFYAYDRIRRTVVAHVFGERTLATLERLLSLLSAFEVVVWMTDGWPLYESRLKGKLHVISKRYTQRIERHNLNLRQHLARLVRKSLSFSKSVELHDKVIGHYLNIKHYQLEHHHHHH” the “soluble on expression in E. coli” value was “not soluble”.
For “MSLNKVWLTGLLTATASGVFSASTLAATEITWWHAMGGQLGEMVNQLATDFNASQSDYKLTPVYKGSYTETLTTGIAAFRAGQAPNILQVFDAGAATIMSSKGVAKPVQDLMIESGYPFTAQDYIAGVRNFYADNTGKMVGMPFNSSTPVLYYNKDMLASVNAQAPQTYEQLEQVAAKLAEKGQAGFAQSLAPWIMFENFKSRHNLPLSDKQNGYQDLSTKIMFNSDDMLMHVKKLKEWSDKGYYKYYGSDWDANQTPFERGEVAMWMGSSGSFGGLRNRVKFNLGTTYLPYWESVTKNPTHTFIGGAALFALQGHTPAQDKGVAAFFAYLTKPETQMNWHKTTGYVPVTNAAYDLTKQSGYYQENPDAEVGVKQLSLPDGEWTKGYRLGYYPQVREVMHREFDNIFSGRSTVESSLNKVEDESAKLLNRFARTVQEGGSHHHHHH”, the “soluble on expression in E. coli” value was “soluble”.
For “MAHHHHHHMSASLKKTALHLFHLAQQAKMDAFAGYHMPISYGRLGVLKEHLYTREVAGIFDVSHVGQYEVRGADRERFLEHVTPVDLQRIRAGHGALTMLTNAQGGIKDDCIVTKMADHLFLVLNAGCKEKDVAHMESVLRESAMKGADVQLVPLDRSLIALQGPQAAAILSEFMDDVPGMGFMQCRQRVNIKGMEVQVTRCGYTGEDGFELSVSNTDIVALVELLMSRKAEMIGLGARDSLRLEAGLNLYGHELTEDINPVAARFMWVISKRRMAEGGFIGYEPIKYLRDNASKGAVPRLRVGLVSTGPVAREKTVIEVGGKPVGEVTSGCPSPCLKKNIAIGYLDRELAKDGVKVDLVVRGRRVAAVVVTPPFVPARYYRKPK”, the “soluble on expression in E. coli” value was “not soluble”.
With “MSYEKEFLKDFEDWVKTQIQVNQLAMATSQEVAQEDGDERAKDAFIRYESKLDAYEFLLGKFDNYKNGKAFHDIPDELFGARHY” the “soluble on expression in E. coli” value was “soluble”.
For “MFQNHKIMDLEVRTRLDDNRNLREVRIIPLGSGYNVGIVYSKEISDISDLNPKRILGIDMGVRNIVTIGNNMSEEGIAVKGGVLRSINQYFNKELSKLKSVSDRQNDGKGNTRRIKNLYAVRNGKIKDIMHKLSRAIIRYALSMNVDTIVIGHSQGWKHTPDMGKKNNQNFVQIPFNILIEQIRYKGQEAGINVIVLDESYTSVCSFIDNESIEKHETYMGKRIKRGIFRSHKGILIHADLNALYNTIKKAISEAFADGIEGIGLYPRSLSIREMITSKGLRLEHHHHHH”, the “soluble on expression in E. coli” value was “soluble”.
In the case of “MNPSLENLQLYPFQKLTKLFEDLVPRDSLPTPIGLHIGEPRHSTPEFIRQELINSLEGLAHYPTVLGTDRLRASIATWLTQRYHLSSIDPDTEVIPVNGSREALFSFAQAVIDTDHKAIQPAVVCQNPFYQIYEGAALLAGATPYFLNQLPENNFSADTAQLPDTVWERTQLVYICSPNNPTGKVLTLDEWKHLFDLSDRYGFVIAADECYSEIYFDEGHPPLGALEAAEKLGRSGFPRLVVFSSLSKRSNVPGMRSGFVAGDATILRKFLLYRTYHGSAMNPAVQAASTVAWSDEQHVAENRKLYYEKFTGAMHILGDTLPVSMPDAGFYLWLRTPVSGIEFSRRLYREGNVTVLPGSYLAREAHGMDPGEDFVRIALVAPVVECMEAMERIRDIARKF”, the “soluble on expression in E. coli” value was “not soluble”.
With “MSLGQDGFRLADYIREHVENGDKLVIRVSYHNTSLGFANPMREGVEKAKRELGVDAELIGPANGSAQEQVSELQTLISQQKVDGLAVSSASNDALKPVIAQAYNAGIPIISFNTNNPGSKQMAFVGQDLVQSGRFEAEQLRKELGDRKGKVVVFSVDTGAGWSNDRFSGFEAGMEGAEGIQIEGPINSGNEPRQAFNAVQNTMTANPDAIAIASLDCCSVDAAAKWVQQNGKKGEIIVVGFDVLPQTADFIRNGVIQFTISQNPVEQGYQSVKILNDFLKKNKPLRDVNTGTKLVDKSNIDEVPLEEGHHHHHH” the “soluble on expression in E. coli” value was “soluble”.
For “MKYAVLIGDGMADYPIEELGSRTILQAARTPAMDSIAARGKTGLAKTVPEGFPPGSDVANMSIFGYDPAIYYSGRAPLEAASMGVALAADDVAFRCNLITIENGKIKDYSAGHISSDEAEILIDTLDSELRTEKVRFYPGISYRHLIVAGNDLGAETECTPPHDITGERKDDYLPRGKDGEFFSGLIEASTVVLELHPVNLKRVQEGKNPANSIWVWGQGYAPKFKTFQELYGKSGAIISAVDLLKGIGIYAGLDVIEVPGATGYLDTNYEGKASAAIEALKTRDLVFVHVEAPDEAGHEGSLEKKMKAIEDFDSRIVSPILKHAEASDETFTILVLPDHPTPISVKTHTRDPIPFAIYRTDAADPDGVEYFDEESVKNGSMGLVKASDLIGMLVKVLEHHHHHH”, the “soluble on expression in E. coli” value was “not soluble”.
For “MSLATEQIQHIAIVGCVHGKYREMYRQLSEYEKSTGKEISFVICTGDMQTLRYEADLVYLKVPPKYKQMGDFHLYYEGKEKAPYLTLFIGGNHESSNVLLHLYNGGFVCFNMYYLGVCSCININGLRIVGVSGIYKSFDEKKPYTYPPSPNDVVSLFHTRNYVIQMLSNLSQSSQIDISLSHDWPQGIVMKGNYKQLYRFQPGFKKDGASLGSPINKVILNTLKPKYWISGHMHCEYHAEEGPTHFIALGKIGYKNAISYLDLPLKQKTDLEYDKDWVCNLIMTWPAFSNKAQFPDLSYSISELLSKRTKELDKKIIELWEKYIGLKIIYDSEGHHHHHH”, the “soluble on expression in E. coli” value was “not soluble”.
In the case of “MSLKIGPILRSNVNRSITGDFDFREADLSLIRNFPNARVSLRDITLTTAAPFEGDTLFKAREAYLVMGIGELFKGAGEPIGIRELFVSGADLRLRLDAEERPNYLVAAEDPAATGATAASDGFTFDLQGYQIADSKISYMDQSSGISFLLEDIQHTGSGDLSLAESRLETRTDARISLGMDSVQYLDRNSLQLDARIGIDLETDTYTFLENEGLINQMPLVFEGSVQLVEEGQEIDLDFRTPSSDFKNFLALIPEAYSKSLEEVRTSGQFTLEGSITGRSDDTRIPNLDIRMEAVDAAFRYPDLPKGIDDINFSARLLNTTGIAGDTYLEIPAAGFRIDQDVFNMSGNIRSLTGNPEVDAALKGTINLASLDQAYPVELAPGLSGVLRADVQTAFDMASVENKQYGNTRTSGSLQLSNLNFRADNFAEPVKIREARLRFDPVEARLESLSGSLGQSDFTLSGTVRDYLGYLLADGILKGQFSLTSNQLLVSDFMSPEDPGQAEKETGADARASGQAPDGGPAFQIPAAIDVSIRGQAASVVYDGLPLRNVSGNLQIRDQELQLRDVRSDALDGKLALNGTVATGEGLPRFNMDLGIDGFRIRETLESIELFETLAPIASIVEGKLNSRVQLSGLLNSDFSPDLMSLAGNVVAEVLASDITGTRAKVLEALDARMDFFNMEDLDLKGLKTALNFENGLVTVKPFSFTYRDMEVSVAGSHSFDQQLNYTATLQVPAKYLGSDVNRLVTELQEPGLKEGHHHHHH”, the “soluble on expression in E. coli” value was “not soluble”.
With “ENENRVEALEVRLAFQDELLDALNATVARQQKEIDLLQQQIRLLYQQFRNAQPDDAPGGSLRDDIPPHY” the “soluble on expression in E. coli” value was “soluble”.
In the case of “MSAICQVTGRQPGYGKSVSHSHRRTSRRWNPNVQRRKFYLPSEGRTITLNVSTKGLKVIDRDGIESVVAKIRARGEKILEHHHHHH”, the “soluble on expression in E. coli” value was “not soluble”.
With “KSIYIQSPYFIPDQAFLDSIKIAALGGVDVNIMIPNKPDHPFVFWATLKNAASLLDAGVKVFHYDNGFLHSKTLVIDDEIASVGTANMDHRSFTLNFEVNAFIYDQQIAKKLKQAFIDDLAVSSELTKARYAKR” the “soluble on expression in E. coli” value was “not soluble”.
For “MSLEIKNVSKQIGDRKILDNISLTIDKGSLVVLIGSSGCGKTTTLKLINKLITPTSGEIFINGKSLAKENPIELRRNIGYVIQNNGLFPHLTIKENIELIPRLKKGKDVEKIEKTTLDLLNMVGLDPEIYLNKYPSELSGGQQQRVGFARAFATDAEIILMDEPFSALDPITRTSLQEELFNIQEELKKTIIFVTHDMDEALKIADKICIMNGGKIAQYDTPENILRNPANDFVRDFIGSDRVWNNPDFIKAKDIMIKNPVSVKGARTILQGIEIMRSNKVDSLLVIDKENVLKGIVTFKDIKITNEKSRALSEIMSENPLRVNEDDSLVDILTVMNENSVGFIPVVNSEEKLVGLITRSSLLSILSDQFLDMEVNIFEEGHHHHHH”, the “soluble on expression in E. coli” value was “soluble”.
